Source: the RNAGym collection of RNA variant scans (doi:10.7554/elife.80360)

B1: CPEB3 Ribozyme (parent)
chain: GGGGGCCACAGCAGAAGCGUUCACGUCGCGGCCCCUGUCAGAUUCUGGUGAAUCUGCGAAUUCUGCUGU

Variants of: B1
Test: self-cleavage, relative activity (ratio to wild type); higher = more cleavage; co-transcriptional

Variant | self-cleavage
GGGGGCCACAGCAGAAGCGUUCACGUCGCGGCCUCUGUCAGAUUCUGGUGAAUCUGCGAAUUCUGAUGU [C34U C66A] | 0.973
GGGGGCCACAGCAGAAGCGUUCACGUCGCGGCCUCUGUCAGAUUCUGGUGAAUCUGCGAAUUCUGUUGU [C34U C66U] | 0.977
GGGGGCCACAGCAGAAGCGUUCACGUCGCGGCCUCUUUCAGAUUCUGGUGAAUCUGCGAAUUCUGCUGU [C34U G37U] | 0.247
GGGGGCCACAGCAGAAGCGUUCACGUCGCGGCCUCUCUCAGAUUCUGGUGAAUCUGCGAAUUCUGCUGU [C34U G37C] | 0.226
GGGGGCCACAGCAGAAGCGUUCACGUCGCGGCCUCUGUCAGUUUCUGGUGAAUCUGCGAAUUCUGCUGU [C34U A42U] | 0.924
GGGGGCCACAGCAGAAGCGUUCACGUCGCGGCCUCUGUCAGCUUCUGGUGAAUCUGCGAAUUCUGCUGU [C34U A42C] | 0.843
GGGGGCCACAGCAGAAGCGUUCACGUCGCGGCCUCUGUCAGGUUCUGGUGAAUCUGCGAAUUCUGCUGU [C34U A42G] | 0.932
GGGGGCCACAGCAGAAGCGUUCACGUCGCGGCCUCUGUCAGAUUCUGGUGAAUCUGCGAAUUCUGCUAU [C34U G68A] | 1.01
GGGGGCCACAGCAGAAGCGUUCACGUCGCGGCCUCUGUCAGAUUCUGGUGAAUCUGCGAAUUCUGCUCU [C34U G68C] | 0.962
GGGGGCCACAGCAGAAGCGUUCACGUCGCGGCCGCUGUCAGAUUCUGGUGAAUCUGCGAAUUCUGCUGA [C34G U69A] | 0.886
GGGGGCCACAGCAGAAGCGUUCACGUCGCGGCCGCUGUCAGAUUCUGGUGAAUCUGCGAAUUCUGCUGC [C34G U69C] | 0.971
GGGGGCCACAGCAGAAGCGUUCACGUCGCGGCCUCUGUCAGAUUCUGGUGUAUCUGCGAAUUCUGCUGU [C34U A51U] | 0.957
GGGGGCCACAGCAGAAGCGUUCACGUCGCGGCCUCUGUCAGAUUCUGGUGCAUCUGCGAAUUCUGCUGU [C34U A51C] | 0.985
GGGGGCCACAGCAGAAGCGUUCACGUCGCGGCCUCUGUCAGAUUCUGGUGGAUCUGCGAAUUCUGCUGU [C34U A51G] | 1.01
GGGGGCCACAGCAGAAGCGUUCACGUCGCGGCCUCUGUCAGAUUCGGGUGAAUCUGCGAAUUCUGCUGU [C34U U46G] | 0.988
GGGGGCCACAGCAGAAGCGUUCACGUCGCGGCCUCUGUCAGAUUCAGGUGAAUCUGCGAAUUCUGCUGU [C34U U46A] | 1
GGGGGCCACAGCAGAAGCGUUCACGUCGCGGCCUCUGUCAGAUUCCGGUGAAUCUGCGAAUUCUGCUGU [C34U U46C] | 0.977
GGGGGCCACAGCAGAAGCGUUCACGUCGCGGCCUCUGUCCGAUUCUGGUGAAUCUGCGAAUUCUGCUGU [C34U A40C] | 0.602
GGGGGCCACAGCAGAAGCGUUCACGUCGCGGCCUCUGUCGGAUUCUGGUGAAUCUGCGAAUUCUGCUGU [C34U A40G] | 0.963
GGGGGCCACAGCAGAAGCGUUCACGUCGCGGCCUCUGUCUGAUUCUGGUGAAUCUGCGAAUUCUGCUGU [C34U A40U] | 0.838
GGGGGCCACAGCAGAAGCGUUCACGUCGCGGCCUCUGUGAGAUUCUGGUGAAUCUGCGAAUUCUGCUGU [C34U C39G] | 0.973
GGGGGCCACAGCAGAAGCGUUCACGUCGCGGCCUCUGUAAGAUUCUGGUGAAUCUGCGAAUUCUGCUGU [C34U C39A] | 0.834
GGGGGCCACAGCAGAAGCGUUCACGUCGCGGCCUCUGUUAGAUUCUGGUGAAUCUGCGAAUUCUGCUGU [C34U C39U] | 0.943
GGGGGCCACAGCAGAAGCGUUCACGUCGCGGCCUCCGUCAGAUUCUGGUGAAUCUGCGAAUUCUGCUGU [C34U U36C] | 0.922
GGGGGCCACAGCAGAAGCGUUCACGUCGCGGCCUCGGUCAGAUUCUGGUGAAUCUGCGAAUUCUGCUGU [C34U U36G] | 0.256
GGGGGCCACAGCAGAAGCGUUCACGUCGCGGCCGCUGUCAGAUUCUGGUGAAUCUGCGAACUCUGCUGU [C34G U61C] | 0.423

Variant | self-cleavage
GGGGGCCACAGCAGAAGCGUUCACGUCGCGGCCGCUGUCAGAUUCUGGUGAAUCUGCGAAUACUGCUGU [C34G U62A] | 0.453
GGGGGCCACAGCAGAAGCGUUCACGUCGCGGCCGCUGUCAGAUUCUGGUGAAUCUGCGAAUCCUGCUGU [C34G U62C] | 0.316
GGGGGCCACAGCAGAAGCGUUCACGUCGCGGCCGCUGUCAGAUUCUGGUGAAUCUGCGAAUGCUGCUGU [C34G U62G] | 0.477
GGGGGCCACAGCAGAAGCGUUCACGUCGCGGCCUCUGUCAGAUGCUGGUGAAUCUGCGAAUUCUGCUGU [C34U U44G] | 0.859
GGGGGCCACAGCAGAAGCGUUCACGUCGCGGCCUCUGUCAGAUACUGGUGAAUCUGCGAAUUCUGCUGU [C34U U44A] | 0.963
GGGGGCCACAGCAGAAGCGUUCACGUCGCGGCCUCUGUCAGAUCCUGGUGAAUCUGCGAAUUCUGCUGU [C34U U44C] | 0.938
GGGGGCCACAGCAGAAGCGUUCACGUCGCGGCCUCUGUCAGAUUCUGGUGAAUCUGAGAAUUCUGCUGU [C34U C57A] | 0.315
GGGGGCCACAGCAGAAGCGUUCACGUCGCGGCCUCUGUCAGAUUCUGGUGAAUCUGUGAAUUCUGCUGU [C34U C57U] | 0.385
GGGGGCCACAGCAGAAGCGUUCACGUCGCGGCCUCUGUCAGAUUCUGGUGACUCUGCGAAUUCUGCUGU [C34U A52C] | 0.958
GGGGGCCACAGCAGAAGCGUUCACGUCGCGGCCUCUGUCAGAUUCUGGUGAUUCUGCGAAUUCUGCUGU [C34U A52U] | 0.975
GGGGGCCACAGCAGAAGCGUUCACGUCGCGGCCUCUGUCAGAUUCUGGUGAAUUUGCGAAUUCUGCUGU [C34U C54U] | 0.985
GGGGGCCACAGCAGAAGCGUUCACGUCGCGGCCUCUGUCAGAUUCUGGUGAAUAUGCGAAUUCUGCUGU [C34U C54A] | 0.809
GGGGGCCACAGCAGAAGCGUUCACGUCGCGGCCUCUGUCAGAUUCUGGUGAAUGUGCGAAUUCUGCUGU [C34U C54G] | 0.819
GGGGGCCACAGCAGAAGCGUUCACGUCGCGGCCUCUGUCAGAUUCUUGUGAAUCUGCGAAUUCUGCUGU [C34U G47U] | 0.995
GGGGGCCACAGCAGAAGCGUUCACGUCGCGGCCUCUGUCAGAUUCUCGUGAAUCUGCGAAUUCUGCUGU [C34U G47C] | 0.968
GGGGGCCACAGCAGAAGCGUUCACGUCGCGGCCUCUGUCAGAUUCUAGUGAAUCUGCGAAUUCUGCUGU [C34U G47A] | 0.958
GGGGGCCACAGCAGAAGCGUUCACGUCGCGGCCUCUGUCAGAUUCUGGGGAAUCUGCGAAUUCUGCUGU [C34U U49G] | 0.985
GGGGGCCACAGCAGAAGCGUUCACGUCGCGGCCUCUGUCAGAUUCUGGCGAAUCUGCGAAUUCUGCUGU [C34U U49C] | 0.998
GGGGGCCACAGCAGAAGCGUUCACGUCGCGGCCUCUGUCAGAUUCUGGAGAAUCUGCGAAUUCUGCUGU [C34U U49A] | 0.996
GGGGGCCACAGCAGAAGCGUUCACGUCGCGGCCUCUGUCAGAUUCUGGUGAAUCUGCGAAUUCUGCUGU [C34U] | 0.991
GGGGGCCACAGCAGAAGCGUUCACGUCGCGGCCUCUGUCAGAUUCUGGUCAAUCUGCGAAUUCUGCUGU [C34U G50C] | 0.999
GGGGGCCACAGCAGAAGCGUUCACGUCGCGGCCUCUGUCAGAUUCUGGUAAAUCUGCGAAUUCUGCUGU [C34U G50A] | 1.03
GGGGGCCACAGCAGAAGCGUUCACGUCGCGGCCUGUGUCAGAUUCUGGUGAAUCUGCGAAUUCUGCUGU [C34U C35G] | 0.313
GGGGGCCACAGCAGAAGCGUUCACGUCGCGGCCUUUGUCAGAUUCUGGUGAAUCUGCGAAUUCUGCUGU [C34U C35U] | 0.736
GGGGGCCACAGCAGAAGCGUUCACGUCGCGGCCUAUGUCAGAUUCUGGUGAAUCUGCGAAUUCUGCUGU [C34U C35A] | 0.194
GGGGGCCACAGCAGAAGCGUUCACGUCGCGGCCUCUGUCAGAUUCUGGUGAAUCUGCGCAUUCUGCUGU [C34U A59C] | 0.661

Variant | self-cleavage
GGGGGCCACAGCAGAAGCGUUCACGUCGCGGCCUCUGUCAGAUUCUGGUGAAUCUGCGGAUUCUGCUGU [C34U A59G] | 0.899
GGGGGCCACAGCAGAAGCGUUCACGUCGCGGCCUCUGUCAGAGUCUGGUGAAUCUGCGAAUUCUGCUGU [C34U U43G] | 0.708
GGGGGCCACAGCAGAAGCGUUCACGUCGCGGCCGCUGUCAGAUUCUGGUGAAUCUGCGAAUUCUGCGGU [C34G U67G] | 0.894
GGGGGCCACAGCAGAAGCGUUCACGUCGCGGCCGCUGUCAGAUUCUGGUGAAUCUGCGAAUUCUGCCGU [C34G U67C] | 0.766
GGGGGCCACAGCAGAAGCGUUCACGUCGCGGCCGCUGUCAGAUUCUGGCGAAUCUGCGAAUUCUGCUGU [C34G U49C] | 0.689
GGGGGCCACAGCAGAAGCGUUCACGUCGCGGCCGCUGUCAGAUUCUGGGGAAUCUGCGAAUUCUGCUGU [C34G U49G] | 0.64
GGGGGCCACAGCAGAAGCGUUCACGUCGCGGCCGCUGUCAGAUUCUGGAGAAUCUGCGAAUUCUGCUGU [C34G U49A] | 0.784
GGGGGCCACAGCAGAAGCGUUCACGUCGCGGCCUCUGUCAAAUUCUGGUGAAUCUGCGAAUUCUGCUGU [C34U G41A] | 0.828
GGGGGCCACAGCAGAAGCGUUCACGUCGCGGCCUCUGUCAGAUUCUGGUGAAUCUGCGAAUUCUCCUGU [C34U G65C] | 0.682
GGGGGCCACAGCAGAAGCGUUCACGUCGCGGCCUCUGUCAGAUUCUGGUGAAUCUGCGAAUUCUACUGU [C34U G65A] | 0.919
GGGGGCCACAGCAGAAGCGUUCACGUCGCGGCCUCUGUCAGAUUCUGUUGAAUCUGCGAAUUCUGCUGU [C34U G48U] | 0.983
GGGGGCCACAGCAGAAGCGUUCACGUCGCGGCCUCUGUCAGAUUCUGGUGAAUCUGCGAGUUCUGCUGU [C34U A60G] | 0.789
GGGGGCCACAGCAGAAGCGUUCACGUCGCGGCCUCUGUCAGAUUCUGGUGAAUCUGCGAUUUCUGCUGU [C34U A60U] | 0.452
GGGGGCCACAGCAGAAGCGUUCACGUCGCGGCCUCUGUCAGAUUCUGGUGAAUCUGCGACUUCUGCUGU [C34U A60C] | 0.371
GGGGGCCACAGCAGAAGCGUUCACGUCGCGGCCGCUGUCAGAUUCGGGUGAAUCUGCGAAUUCUGCUGU [C34G U46G] | 0.766
GGGGGCCACAGCAGAAGCGUUCACGUCGCGGCCGCUGUCAGAUUCUGGUGAACCUGCGAAUUCUGCUGU [C34G U53C] | 0.562
GGGGGCCACAGCAGAAGCGUUCACGUCGCGGCCGCUGUCAGAUUCUGGUGAAGCUGCGAAUUCUGCUGU [C34G U53G] | 0.27
GGGGGCCACAGCAGAAGCGUUCACGUCGCGGCCUCUGUCAGAUUCUGGUGAAUCUGCGAAUUGUGCUGU [C34U C63G] | 0.78
GGGGGCCACAGCAGAAGCGUUCACGUCGCGGCCUCUGUCAGAUUCUGGUGAAUCUCCGAAUUCUGCUGU [C34U G56C] | 0.792
GGGGGCCACAGCAGAAGCGUUCACGUCGCGGCCUCUGUCAGAUUCUGGUGAAUCUACGAAUUCUGCUGU [C34U G56A] | 0.955
GGGGGCCACAGCAGAAGCGUUCACGUCGCGGCCUCUGUCAGAUUCUGGUGAAUCUUCGAAUUCUGCUGU [C34U G56U] | 0.975
GGGGGCCACAGCAGAAGCGUUCACGUCGCGGCCUCUGUCAGAUUUUGGUGAAUCUGCGAAUUCUGCUGU [C34U C45U] | 1.03
GGGGGCCACAGCAGAAGCGUUCACGUCGCGGCCUCUGUCAGAUUGUGGUGAAUCUGCGAAUUCUGCUGU [C34U C45G] | 0.992
GGGGGCCACAGCAGAAGCGUUCACGUCGCGGCCGCUGUCAGAUUCUGGUGAAUCUGCGAAUUCCGCUGU [C34G U64C] | 0.402
GGGGGCCACAGCAGAAGCGUUCACGUCGCGGCCGCUGUCAGAUUCUGGUGAAUCUGCGAAUUCGGCUGU [C34G U64G] | 0.35
GGGGGCCACAGCAGAAGCGUUCACGUCGCGGCCGCUGUCAGAUUCUGGUGAAUCUGCGAAUUCAGCUGU [C34G U64A] | 0.384
